In US11203633B2, “Polynucleotides encoding antibodies or antigen binding fragments thereof that bind pseudomonas perv” (priority 2011, dated 2021):
Changes are numbered by the printed parent chain. Names may count otherwise.

Key:
[1] = system: luminescent P. aeruginosa serogroup 05 strain (PAO1.lux); assay: Opsonophagocytic killing (OPK) assay, PAO1.lux; format: cell-based, Pseudomonas aeruginosa; conditions: purified human IgG1 mAbs from phage panning; FIG. 2A
Description: (§1) This example describes the evaluation of prioritized human IgG1 antibodies to promote OPK of P. aeruginosa. […] OPK assays were performed as described in (DiGiandomenico, A., et al., Infect Immun 72, 7012-7021 (2004)), with modifications. Briefly, assays were performed in 96-well plates using 0.025 ml of each OPK component; P. aeruginosa strains; diluted baby rabbit serum; differentiated HL-60 cells; and monoclonal antibody. In some OPK assays, luminescent P. aeruginosa strains, which were constructed as described (Choi, K. H., et al., Nat Methods 2, 443-448 (2005)), were used. Luminescent OPK assays were performed as described above but with determination of relative luciferase units (RLUs) using a Perkin Elmer ENVISION Multilabel plate reader (Perkin Elmer).

[2] = system: luminescent P. aeruginosa serogroup 011 strain (9882-80.lux); assay: OPK assay, 9882-80.lux; format: cell-based, Pseudomonas aeruginosa; conditions: strain 9882-80 (O11); FIG. 2B
Description: as §1
The ability of the WapR-004 and Cam-003 antibodies to mediate OPK activity against another clinically relevant 0-antigen serotype strain, 9882-80.lux, was evaluated.

[3] = system: P. aeruginosa strains (PAO1, 33356, 6294, 6077, 6206, PA103A); assay: Acute pneumonia model in mice, survival; format: in vivo, Pseudomonas aeruginosa
Description: (§2) Antibodies or PBS were administered 24 hours before infection in each model. P. aeruginosa acute pneumonia, keratitis, and thermal injury infection models were performed as described (DiGiandomenico, A., et al., Proc Natl Acad Sci USA 104, 4624-4629 (2007)), with modifications. In the acute pneumonia model, BALB/c mice (The Jackson Laboratory) were infected with P. aeruginosa strains suspended in a 0.05 ml inoculum. In the thermal injury model, CF-1 mice (Charles River) received a 10% total body surface area burn with a metal brand heated to 92° C. for 10 seconds. Animals were infected subcutaneously with P. aeruginosa strain 6077 at the indicated dose. For organ burden experiments, acute pneumonia was induced in mice followed by harvesting of lungs, spleens, and kidneys 24 hours post-infection for determination of CFU.
The in vivo effect of administration of an anti-PcrV antibodies was studied in mice using an acute pneumonia model. Groups of mice were treated with either increasing concentrations of the V2L2 antibody, a positive control anti-PcrV antibody (mAb166), or a negative control (R347), as shown in FIG. 13 (A-B). Groups of mice were also treated with either increasing concentrations of the V2L2 antibody, the PcrV antibody PcrV-02, or a negative control (R347), as shown in FIG. 13 (C-D). Twenty-four hours after treatment, all mice were infected with 5×10^7 CFU (C) Pseudomonas aeruginosa 6294 (06) or (D) PA103A (O11).
Groups of mice were treated with either increasing concentrations of the 11A6, 3G5 or V2L7, the same concentrations of 29D2, 1F3, 1E6, V2L2, LE10, SH3, 4A8, 2H3, or 21F1, increasing concentrations of the 29D2, increasing concentrations of the V2L2, the PcrV antibody PcrV-02, or a negative control (R347), as shown in FIG. 13 (E-H). Mice were injected intraperitoneally (IP) with mAbs 24 hours prior to intranasal infection with Pseudomonas strain 6077 (1×10^6 CFU/animal).

[4] = system: P. aeruginosa strains (PAO1, 33356, 6294, 6077, 6206); assay: Acute pneumonia model in mice, organ burden (CFU in lung, spleen, kidneys); format: in vivo, Pseudomonas aeruginosa
Description: as §2
Organ burden of Pseudomonas-infected mice was also studied in response to administration of V2L2. FIG. 14 (A) Mice were treated with either 1 mg/kg R347 (control), or 1 mg/kg, 0.2 mg/kg, or 0.07 mg/kg of V2L2 and then were infected intranasally with 1.2×10^6 cfu of Pseudomonas 6206. FIG. 14 (B) Mice were also treated with either 15 mg/kg R347 (negative control); 15.0 mg/kg, 5.0 mg/kg, or 1.0 mg/kg mAb166 (positive control); or 5.0 mg/kg, 1.0 mg/kg, or 0.2 mg/kg V2L2 and then were infected intranasally with 5.5×10^6 cfu of Pseudomonas 6206.
The in vivo effect of combination administration of anti-Psl and anti-PcrV binding domains was further studied in mice using the antibodies V2L2 and WapR-004 (RAD). Groups of mice were treated with R347 (2.1 mg/kg—negative control), V2L2 (0.1 mg/kg), W4-RAD (0.5 mg/kg), or V2L2/W4 combination (either 0.1, 0.5, 1.0 or 2.0 mg/kg each). Twenty-four hours post-administration of antibody, all mice were infected with an inoculum containing 5.25×10^5 cfu 6206 (O11-ExoU+). Twenty-four hours post infection, lungs, spleens, and kidneys were harvested, homogenized, and plated for colony forming unit (CFU) identification per gram of tissue.

[5] = system: P. aeruginosa strains 6206 and 6294; assay: Acute pneumonia model in mice, histological examination of lung tissue; format: in vivo, Pseudomonas aeruginosa
[6] = system: P. aeruginosa strain 6077 (O11-cytotoxic); assay: Corneal infection (ocular keratitis) model in mice; format: in vivo, Pseudomonas aeruginosa
[7] = system: P. aeruginosa strain 6077 (O11-cytotoxic); assay: Corneal infection (ocular keratitis) model in mice; format: in vivo, Pseudomonas aeruginosa; conditions: C3H/HeN mice; IP, 16 hours prior to infection with 6077 1×10^6 CFU; graded at 48 h; FIG. 8H
Description: as §2
Cam-003 and WapR-004 efficacy was next evaluated in a P. aeruginosa corneal infection model which emphasizes the pathogens ability to attach and colonize damaged tissue. […] FIG. 8 (H): The activity of anti-Psl and anti-PcrV monoclonal antibodies V2L2 was tested in a P. aeruginosa mouse ocular keratitis model. […]

[8] = 6294 (06) and 6206 (O11), FIG. 7E-F
[9] = Table 5, 6206 5.25×10^5 cfu, R347 2.1 mg/kg, V2L2 0.1 mg/kg, WapR-004 0.5 mg/kg
[10] = Table 6A, strain 6294 1.33×10^7 CFU, 0.2 mg/kg (combination 0.1 mg/kg ea)
[11] = Table 6B, strain 6294 1.7×10^7 CFU, 0.2 mg/kg (combination 0.1 mg/kg ea)
[12] = Table 7, strain 6206 9.25×10^5 CFU, 0.2 mg/kg (combination 0.1 mg/kg ea)

B1: WapR-004: anti-Psl human IgG1 monoclonal antibody; VH SEQ ID NO:11, VL SEQ ID NO:12 (antibody, V domains shown)
VH: EVQLLESGPGLVKPSETLSLTCNVAGGSISPYYWTWIRQPPGKGLELIGYIHSSGYTDYNPSLKSRVTISGDTSKKQFSLHVSSVTAADTAVYFCARGDWDLLHALDIWGQGTLVTVSS
VL: EIVLTQSPSSLSTSVGDRVTITCRASQSIRSHLNWYQQKPGKAPKLLIYGASNLQSGVPSRFSGSGSGTDFTLTISSLQPEDFATYYCQQSYSFPLTFGGGTKLEIK
modifications: human IgG1 constant regions not cited; WapR-004 VH; WapR-004 & WarR-004RAD VL
OPK activity (killing of PAO1.lux) [1]: superior OPK activity
OPK activity [2]: OPK activity extends to strain 9882-80 (O11)
survival ([3]; strain 6077 (O11) 8×10^5 or 6×10^5 CFU, 5 and 1 mg/kg, FIG. 6E-F): significant concentration-dependent survival
organ burden ([4]; 6206 (O11-ExoU+) 5.25×10^5 cfu, V2L2 0.1 mg/kg, W4-RAD 0.5 mg/kg, FIG. 15): effective in lowering organ burden
viable CFU vs. R347, Mann-Whitney U-test P ([4]; 6206, kidney, 5 mg/kg, FIG. 7F): 0.0268
viable CFU vs. R347, Mann-Whitney U-test P ([4]; 6206, kidney, 15 mg/kg, FIG. 7F): 0.0208
viable CFU vs. R347, Mann-Whitney U-test P ([4]; 6206, lung, 1 mg/kg, FIG. 7F): 0.0079
viable CFU vs. R347, Mann-Whitney U-test P ([4]; 6206, lung, 5 mg/kg, FIG. 7F): 0.0006
viable CFU vs. R347, Mann-Whitney U-test P ([4]; 6206, spleen, 1 mg/kg, FIG. 7F): 0.0047
viable CFU vs. R347, Mann-Whitney U-test P ([4]; 6206, spleen, 5 mg/kg, FIG. 7F): 0.0261
viable CFU vs. R347, Mann-Whitney U-test P ([4]; 6206, spleen, 15 mg/kg, FIG. 7F): 0.0059
dissemination to the spleen and kidneys [4, 8]: effective at reducing P. aeruginosa dissemination to the spleen and kidneys
organ burden [4, 8]: reduced organ burden
viable CFU vs. R347, Mann-Whitney U-test P ([4]; 6294 ~1×10^7 CFU, lung, 1 mg/kg, FIG. 7E): 0.0002
viable CFU vs. R347, Mann-Whitney U-test P ([4]; 6294 ~1×10^7 CFU, lung, 5 mg/kg, FIG. 7E): 0.0004
viable CFU vs. R347, Mann-Whitney U-test P ([4]; 6294 ~1×10^7 CFU, lung, 15 mg/kg, FIG. 7E): 0.0011
viable CFU vs. R347, Mann-Whitney U-test P ([4]; 6294 ~1×10^7 CFU, spleen, 5 mg/kg, FIG. 7E): 0.0014
Inflammatory Infiltrate [5, 9]: PMN 2-3+
Involved Lung Surface Area [5, 9]: 50%
Overall Impression [5, 9]: Broncho interstitial pneumonia
Overall Impression ([5]; Table 6A, BALB/c mice, strain 6294 1.33×10^7 CFU, 0.2 mg/kg (combination 0.1 mg/kg ea)): Broncho interstitial pneumonia
Hemorrhage (extent) [5, 10]: Extensive
Inflammatory Infiltrate [5, 10]: PMN 3+
Involved Lung Surface Area [5, 10]: (57%), mod epithelial injury,
Overall Impression ([5]; Table 6B, BALB/c mice, strain 6294 1.7×10^7 CFU, 0.2 mg/kg (combination 0.1 mg/kg ea)): Broncho interstitial pneumonia
Bacteria [5, 11]: Neg-2+
Inflammatory Infiltrate [5, 11]: PMN 2+
Involved Lung Surface Area [5, 11]: (40%), mod epithelial injury,
Overall Impression ([5]; Table 7, BALB/c mice, strain 6206 9.25×10^5 CFU, 0.2 mg/kg (combination 0.1 mg/kg ea)): Broncho interstitial pneumonia
Bacteria [5, 12]: Neg-1+
Inflammatory Infiltrate [5, 12]: PMN 2+
Involved Lung Surface Area [5, 12]: (36%), mild epithelial injury,
corneal pathology and bacterial counts vs negative control-treated animals ([6]; 6077, antibody 24 hours prior to infection, FIG. 8A-D, F-G): significantly less pathology and reduced bacterial counts in total eye homogenates
Cam-003 (45 mg/kg) vs. WapR-004 (15 mg/kg), Mann-Whitney U-test P ([6]; FIG. 8F-G): 0.0025
Cam-003 (45 mg/kg) vs. WapR-004 (45 mg/kg), Mann-Whitney U-test P ([6]; FIG. 8F-G): 0.018
WapR-004 (45 mg/kg) vs. WapR-004 (15 mg/kg), Mann-Whitney U-test P ([6]; FIG. 8F-G): 0.1331

B2: WapR-004RAD: identical to WapR-004 except for an amino acid substitution G98A of the VH; VH SEQ ID NO:74, VL SEQ ID NO:12 (antibody, V domains shown)
VH: B1 VH with G98A
VL: B1 VL
modifications: WapR-004RAD VH; WapR-004 & WarR-004RAD VL
animals survived ([3]; 6206, W4-RAD 0.2 mg/kg, monitored 120 hours, FIG. 21A): Approximately 90%
effect on survival ([3]; 6294, W4-RAD 0.2 mg/kg, FIG. 24): did not affect survival
organ burden in lung, spleen, kidney ([4]; 6294 2.5×10^7 CFU, bispecifics 0.7 mg/kg, W4-RAD 0.5 mg/kg, FIG. 23A): had no effect on decreasing organ burden
corneal pathology and CFU in total eye homogenates vs R347 [7]: significantly less pathology and reduced bacterial colony forming units (CFU) in total eye homogenates
